In general, IC50 refers to the point on the concentration scale where inhibition reaches its midpoint. A lower IC50 goes with inhibition by little substance.

For assay [1], the target named is T1, melanocortin-1 (MC1) receptor on B16/F1 murine melanoma cells (mouse (B16/F1 murine melanoma cells), UniProt Q01727 1-315).
T1 construct: whole, on cells; Endogenous receptor of the B16/F1 cells, in culture and as flank tumours in C57 mice; also called MCI receptor; MSH receptor
Description: competitive binding on B16/F1 melanoma cells against 125I-Tyr2-NDP-MSH; row head 'MC1R binding affinity (nM)'. The protocol: (§1) The medium was aspirated after the incubation. The cells were rinsed twice with 0.5 mL of ice-cold pH 7.4, 0.2% BSA/0.01 M phosphate buffered saline (PBS) and lysed in 0.5 mL of 1 N NaOH for 5 minutes. The activities associated with cells were measured in a Wallac 1480 automated gamma counter (PerkinElmer, Waltham, Mass.). The $IC50$ value of each peptide was calculated using Prism software (GraphPad Software, La Jolla, Calif.).

In assay [2] the target is T1, melanocortin-1 (MC1) receptor on B16/F1 …. Description: competitive binding on B16/F1 melanoma cells against 125I-Tyr2-NDP-MSH. The protocol: as §1

Positions of bridges follow the written chain, without caps; N, C: chain ends. Non-standard residues stand in square brackets, D forms with d. *: point of attachment. DOTA = O=C(O)CN1CCN(CC(=O)O)CCN(CC(=O)*)CCN(CC(=O)O)CC1; Nle = CCCC[C@H](N)C(=O)O

T1 sequence (Q01727 whole entry): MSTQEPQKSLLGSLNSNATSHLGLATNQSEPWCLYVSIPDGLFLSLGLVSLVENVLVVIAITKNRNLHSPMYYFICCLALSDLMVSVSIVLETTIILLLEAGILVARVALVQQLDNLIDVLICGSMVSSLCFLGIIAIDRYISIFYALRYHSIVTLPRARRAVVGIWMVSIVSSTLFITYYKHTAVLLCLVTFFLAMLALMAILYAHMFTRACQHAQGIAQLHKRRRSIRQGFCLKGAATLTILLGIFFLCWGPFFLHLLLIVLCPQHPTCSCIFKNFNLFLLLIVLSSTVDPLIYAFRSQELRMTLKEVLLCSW

B1: DOTA-GGNle-CycMSHhex (peptide)
peptide: {DOTA}-GG[Nle]DH[dF]RWK-NH2
modifications: lactam 4-9
SMILES: CCCC[C@H](NC(=O)CNC(=O)CNC(=O)CN1CCN(CC(=O)O)CCN(CC(=O)O)CCN(CC(=O)O)CC1)C(=O)N[C@H]1CC(=O)NCCCC[C@@H](C(N)=O)NC(=O)[C@H](Cc2c[nH]c3ccccc23)NC(=O)[C@H](CCCNC(=N)N)NC(=O)[C@@H](Cc2ccccc2)NC(=O)[C@H](Cc2c[nH]cn2)NC1=O
notes: Synthetic; also called DOTA-GlyGlyNle-CycMSHhex
B1 displayed a half-inhibitory concentration (IC50) in assay [1] of 2.1 nM. This lies in the single-digit nanomolar range.

B2: DOTA-GENle-CycMSHhex (peptide)
peptide: {DOTA}-GE[Nle]DH[dF]RWK-NH2
modifications: lactam 4-9
SMILES: CCCC[C@H](NC(=O)[C@H](CCC(=O)O)NC(=O)CNC(=O)CN1CCN(CC(=O)O)CCN(CC(=O)O)CCN(CC(=O)O)CC1)C(=O)N[C@H]1CC(=O)NCCCC[C@@H](C(N)=O)NC(=O)[C@H](Cc2c[nH]c3ccccc23)NC(=O)[C@H](CCCNC(=N)N)NC(=O)[C@@H](Cc2ccccc2)NC(=O)[C@H](Cc2c[nH]cn2)NC1=O
notes: Synthetic; also called DOTA-GlyGluNle-CycMSHhex
For B2, the half-maximal inhibitory concentration (IC50) in assay [1] was 11.5 nM.

B3: DOTA-NleGE-CycMSHhex (peptide)
peptide: {DOTA}-[Nle]GEDH[dF]RWK-NH2
modifications: lactam 4-9
SMILES: CCCC[C@H](NC(=O)CN1CCN(CC(=O)O)CCN(CC(=O)O)CCN(CC(=O)O)CC1)C(=O)NCC(=O)N[C@@H](CCC(=O)O)C(=O)N[C@H]1CC(=O)NCCCC[C@@H](C(N)=O)NC(=O)[C@H](Cc2c[nH]c3ccccc23)NC(=O)[C@H](CCCNC(=N)N)NC(=O)[C@@H](Cc2ccccc2)NC(=O)[C@H](Cc2c[nH]cn2)NC1=O
notes: Synthetic; also called DOTA-NleGlyGlu-CycMSHhex
Regarding B3, in assay [2], the “fold lower receptor binding affinity than DOTA-GGNle-CycMSHhex and DOTA-GENle-CycMSHhex” value is at least 78 fold. The IC50 in assay [1] amounted to 873 nM.

(Values after patent US9493537 (STC UNM, dated 2016).)
